Results published in patent US20140341843A1 (ELEVEN BIOTHERAPEUTICS, published 2014).

Target: T1, soluble recombinant human IL-1RI (corresponding to the extracellular domain of IL-1RI) (human, UniProt P14778 18-336)
T1 construct: extracellular domain; also called interleukin-1 receptor I; IL-1R1 receptor
T1 sequence (looked up): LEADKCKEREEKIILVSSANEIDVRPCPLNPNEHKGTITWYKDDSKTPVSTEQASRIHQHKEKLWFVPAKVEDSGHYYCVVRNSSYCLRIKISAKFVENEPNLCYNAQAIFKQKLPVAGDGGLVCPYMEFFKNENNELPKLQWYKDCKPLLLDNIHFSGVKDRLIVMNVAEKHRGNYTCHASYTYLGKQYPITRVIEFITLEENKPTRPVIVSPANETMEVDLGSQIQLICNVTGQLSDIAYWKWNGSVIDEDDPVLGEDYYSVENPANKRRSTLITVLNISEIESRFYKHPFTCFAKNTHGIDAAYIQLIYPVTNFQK
Assay: Kd to the IL-1R1 receptor as listed in Table 15; method not restated, values are the SPR values of Table 7 rounded

B1: P02 (designed binder)
chain: APVRSLAFRIWDVNQKTFYLRNNQLVAGYLQGPNVNLEEKIDVSFVQGEESNDKIPVALGIHGGKMCLSCVKSGDETRLQLEAVDPKNYPKKKMEKRFVFNKIEINNKLSFESAACPGWFLCTAMEADQPVSLTNMPDEGVMVTKFYMQFVSS
notes: IL-1β/IL-1Ra chimera expressed in E. coli; also called P02 domain; chimeric cytokine domain P02
Kd: 640 pM
